From patent publication US20240058465A1 (SUTRO BIOPHARMA, published 2024)
Substitutions are numbered along the chain they refer to. Blank lines part the entries; values can stand above or below the binder they belong to.

How the values were obtained:
[1] = target: T1, human ROR1 (hROR1) (human, UniProt Q01973 30-937); experiment: cell-based or functional assay
[2] = target: T2, human ROR1 Frizzled domain (hROR1-Fz) (human, UniProt Q01973 165-305); experiment: SPR Biacore, IgG on anti-Fc, ROR1-Fz analyte
T2 construct: Acro Biosystems, made in HEK293
Method in brief: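 Test antibodies captured on an anti-Fc surface (CM5 chip), then analyte bound for 180 s with 600 s dissociation at 25° C in HBS-EP+ buffer at 50 μL/min. Human ROR1 ECD, Frizzled or Kringle domain used as analyte; regeneration with 10 mM glycine pH 2.0.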

[3] = target: T1, human ROR1 (hROR1); experiment: flow cytometry, HCT116-hROR1 cells

B1: SRP2193-B01 (antibody, IgG1, V domains shown)
VH: EVQLVESGGGLVQPGGSLRLSCAASGFNIGGYYIHWVRQAPGKGLEWVGAIDPRSGYTVYADSVKGRFTISADTSKNTAYLQMNSLRAEDTAVYYCARSRWFRVLWSFVLDYWGQGTLVTVSS
VL: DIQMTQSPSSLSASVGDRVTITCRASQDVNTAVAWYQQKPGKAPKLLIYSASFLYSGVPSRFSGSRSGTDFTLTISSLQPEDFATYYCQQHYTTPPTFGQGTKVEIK
notes: His/FLAG-tagged IgG1, cell-free
- Mino Nb-PBD, drug-conjugated 2° antibody Cell Killing EC50 [1]: 0.0023 nM
- Mino Nb-PBD, drug-conjugated 2° antibody Cell Killing Span [1]: 66%
- Kd [2]: 1.13 nM
- koff [2]: 0.000178 s⁻¹
- kon [2]: 158000 M⁻¹ s⁻¹
- Bmax (MFI) [3]: 15300 MFI
- Kd [3]: 0.15 nM

B2: SRP2193-B11 (antibody, IgG1, V domains shown)
VH: B1 VH with G30T, Y32S, R54K, Y57F, V59S, V64A, L110F
VL: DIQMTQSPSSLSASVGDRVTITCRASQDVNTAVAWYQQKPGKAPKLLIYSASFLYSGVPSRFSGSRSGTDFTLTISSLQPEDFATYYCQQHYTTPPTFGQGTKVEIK
notes: His/FLAG-tagged IgG1, cell-free; also called Antibody 100
- Mino Nb-PBD, drug-conjugated 2° antibody Cell Killing EC50 [1]: 0.0013 nM
- Mino Nb-PBD, drug-conjugated 2° antibody Cell Killing Span [1]: 66%
- Kd [2]: 1.59 nM
- koff [2]: 0.000251 s⁻¹
- kon [2]: 158000 M⁻¹ s⁻¹
- Bmax (MFI) [3]: 15200 MFI
- Kd [3]: 0.46 nM

B3: SRP2193-D04 (antibody, IgG1, V domains shown)
VH: B1 VH with G30N, Y32F, R54N, S55G, Y57S, F102Y, F108Y, V109A, L110F
VL: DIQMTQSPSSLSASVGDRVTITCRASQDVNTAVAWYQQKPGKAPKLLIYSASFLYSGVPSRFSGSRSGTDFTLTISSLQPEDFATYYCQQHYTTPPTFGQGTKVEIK
notes: His/FLAG-tagged IgG1, cell-free; also called Antibody 71
- Mino Nb-PBD, drug-conjugated 2° antibody Cell Killing EC50 [1]: 0.0045 nM
- Mino Nb-PBD, drug-conjugated 2° antibody Cell Killing Span [1]: 65%
- Kd [2]: 2.81 nM
- koff [2]: 0.000292 s⁻¹
- kon [2]: 104000 M⁻¹ s⁻¹
- Bmax (MFI) [3]: 15000 MFI
- Kd [3]: 0.7 nM

B5: SRP2193-C09 (antibody, IgG1, V domains shown)
VH: B1 VH with S17P, G30N, G31H, Y32S, R54I, Y57S, F102S, F108Y, L110F
VL: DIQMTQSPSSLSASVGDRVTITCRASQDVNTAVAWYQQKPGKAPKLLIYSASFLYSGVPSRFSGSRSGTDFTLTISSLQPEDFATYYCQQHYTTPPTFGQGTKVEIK
notes: His/FLAG-tagged IgG1, cell-free; also called Antibody 118
- Mino Nb-PBD, drug-conjugated 2° antibody Cell Killing EC50 [1]: 0.0016 nM
- Mino Nb-PBD, drug-conjugated 2° antibody Cell Killing Span [1]: 64%
- Kd [2]: 2.22 nM
- koff [2]: 0.000394 s⁻¹
- kon [2]: 178000 M⁻¹ s⁻¹
- Bmax (MFI) [3]: 15500 MFI
- Kd [3]: 0.35 nM

B9: SRP2193-B09 (antibody, IgG1, V domains shown)
VH: B1 VH with G30N, G31N, Y32S, A50I, R54N, S55N, Y57S, V59A, F102Y, F108Y
VL: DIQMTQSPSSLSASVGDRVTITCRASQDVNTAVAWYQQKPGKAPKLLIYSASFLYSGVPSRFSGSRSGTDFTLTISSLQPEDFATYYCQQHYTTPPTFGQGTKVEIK
notes: His/FLAG-tagged IgG1, cell-free; also called Antibody 75
- Mino Nb-PBD, drug-conjugated 2° antibody Cell Killing EC50 [1]: 0.0029 nM
- Mino Nb-PBD, drug-conjugated 2° antibody Cell Killing Span [1]: 67%
- Kd [2]: 1.9 nM
- koff [2]: 0.000226 s⁻¹
- kon [2]: 119000 M⁻¹ s⁻¹
- Bmax (MFI) [3]: 15200 MFI
- Kd [3]: 0.23 nM

B10: SRP2193-C02 (antibody, IgG1, V domains shown)
VH: B1 VH with G30S, G31D, A50T, R54Q, Y57S, K76E, L110F
VL: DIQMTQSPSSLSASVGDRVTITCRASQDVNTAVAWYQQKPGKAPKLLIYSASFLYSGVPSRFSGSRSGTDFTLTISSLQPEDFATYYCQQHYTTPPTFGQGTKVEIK
notes: His/FLAG-tagged IgG1, cell-free; also called Antibody 81
- Mino Nb-PBD, drug-conjugated 2° antibody Cell Killing EC50 [1]: 0.0034 nM
- Mino Nb-PBD, drug-conjugated 2° antibody Cell Killing Span [1]: 62%
- Kd [2]: 6.2 nM
- koff [2]: 0.00173 s⁻¹
- kon [2]: 278000 M⁻¹ s⁻¹
- Bmax (MFI) [3]: 15800 MFI
- Kd [3]: 0.85 nM

More lines, main results first:

- Kd [2]: 2.37 nM
- koff [2]: 0.000273 s⁻¹
- kon [2]: 115000 M⁻¹ s⁻¹
- Bmax (MFI) [3]: 15700 MFI
- Kd [3]: 0.64 nM
B4: SRP2193-C11 (antibody, IgG1, V domains shown)
VH: B1 VH with G30A, G31D, Y32S, G49A, A50V, R54K, Y57S, V59N, F108Y, L110F
VL: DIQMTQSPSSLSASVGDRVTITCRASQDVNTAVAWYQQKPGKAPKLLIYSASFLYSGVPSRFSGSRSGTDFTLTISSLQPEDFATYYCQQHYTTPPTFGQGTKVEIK
notes: as for B1
- Mino Nb-PBD, drug-conjugated 2° antibody Cell Killing EC50 [1]: 0.0015 nM
- Mino Nb-PBD, drug-conjugated 2° antibody Cell Killing Span [1]: 63%

- Kd [2]: 0.674 nM
- koff [2]: 0.000199 s⁻¹
- kon [2]: 295000 M⁻¹ s⁻¹
- Bmax (MFI) [3]: 18300 MFI
- Kd [3]: 0.1 nM
B6: SRP2193-E05 (antibody, IgG1, V domains shown)
VH: EVQLVESGGGLVQPGGSLRLSCAASGFNIKRSYIHWVRQAPGKGLEWVVSIDPNGSSTHYADSVKGRFTISADTSKNTAYLQMNSLRAEDTAVYYCARSRWFRVLWSYVLDYWGQGTLVTVSS
VL: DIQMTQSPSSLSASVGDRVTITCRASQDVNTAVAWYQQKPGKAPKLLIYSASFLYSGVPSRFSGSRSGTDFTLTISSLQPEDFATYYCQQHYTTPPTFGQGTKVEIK
notes: His/FLAG-tagged IgG1, cell-free; also called Antibody 84
- Mino Nb-PBD, drug-conjugated 2° antibody Cell Killing EC50 [1]: 0.00034 nM
- Mino Nb-PBD, drug-conjugated 2° antibody Cell Killing Span [1]: 70%

- Kd [2]: 101 nM
- koff [2]: 0.6 s⁻¹
- kon [2]: 5.94e+06 M⁻¹ s⁻¹
- Bmax (MFI) [3]: 14300 MFI
- Kd [3]: 0.28 nM
B7: SRP2193-D06 (antibody, IgG1, V domains shown)
VH: B1 VH with G30R, G31D, G49R, R54H, Y57S, F108Y, L110F
VL: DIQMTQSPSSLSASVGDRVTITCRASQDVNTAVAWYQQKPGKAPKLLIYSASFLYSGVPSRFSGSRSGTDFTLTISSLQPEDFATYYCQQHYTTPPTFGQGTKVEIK
notes: His/FLAG-tagged IgG1, cell-free; also called Antibody 80
- Mino Nb-PBD, drug-conjugated 2° antibody Cell Killing EC50 [1]: 0.0057 nM
- Mino Nb-PBD, drug-conjugated 2° antibody Cell Killing Span [1]: 68%

- Kd [2]: 5.31 nM
- koff [2]: 0.000487 s⁻¹
- kon [2]: 91700 M⁻¹ s⁻¹
- Bmax (MFI) [3]: 14600 MFI
- Kd [3]: 1.7 nM
B8: SRP2193-B06 (antibody, IgG1, V domains shown)
VH: B1 VH with G30D, G49A, R54H, S55P, Y57S, S107T, F108Y, L110F
VL: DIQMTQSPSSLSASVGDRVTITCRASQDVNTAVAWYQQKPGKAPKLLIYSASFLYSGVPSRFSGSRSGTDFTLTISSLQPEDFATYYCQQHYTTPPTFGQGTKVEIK
notes: as for B1
- Mino Nb-PBD, drug-conjugated 2° antibody Cell Killing EC50 [1]: 0.0027 nM
- Mino Nb-PBD, drug-conjugated 2° antibody Cell Killing Span [1]: 65%
